Assay results taken from publication doi:10.1101/683052.

Molecular target: dynein/ dynactin/ BicD2-S complex (human | human (endogenous in HEK293-T)) (UniProt Q14204)
Test: single-molecule TIRF colocalisation on microtubules

dynein/ dynactin/ BicD2-S complex (human | human (endogenous in HEK293-T)), sequence (Q14204 whole entry, looked up, one chain of several): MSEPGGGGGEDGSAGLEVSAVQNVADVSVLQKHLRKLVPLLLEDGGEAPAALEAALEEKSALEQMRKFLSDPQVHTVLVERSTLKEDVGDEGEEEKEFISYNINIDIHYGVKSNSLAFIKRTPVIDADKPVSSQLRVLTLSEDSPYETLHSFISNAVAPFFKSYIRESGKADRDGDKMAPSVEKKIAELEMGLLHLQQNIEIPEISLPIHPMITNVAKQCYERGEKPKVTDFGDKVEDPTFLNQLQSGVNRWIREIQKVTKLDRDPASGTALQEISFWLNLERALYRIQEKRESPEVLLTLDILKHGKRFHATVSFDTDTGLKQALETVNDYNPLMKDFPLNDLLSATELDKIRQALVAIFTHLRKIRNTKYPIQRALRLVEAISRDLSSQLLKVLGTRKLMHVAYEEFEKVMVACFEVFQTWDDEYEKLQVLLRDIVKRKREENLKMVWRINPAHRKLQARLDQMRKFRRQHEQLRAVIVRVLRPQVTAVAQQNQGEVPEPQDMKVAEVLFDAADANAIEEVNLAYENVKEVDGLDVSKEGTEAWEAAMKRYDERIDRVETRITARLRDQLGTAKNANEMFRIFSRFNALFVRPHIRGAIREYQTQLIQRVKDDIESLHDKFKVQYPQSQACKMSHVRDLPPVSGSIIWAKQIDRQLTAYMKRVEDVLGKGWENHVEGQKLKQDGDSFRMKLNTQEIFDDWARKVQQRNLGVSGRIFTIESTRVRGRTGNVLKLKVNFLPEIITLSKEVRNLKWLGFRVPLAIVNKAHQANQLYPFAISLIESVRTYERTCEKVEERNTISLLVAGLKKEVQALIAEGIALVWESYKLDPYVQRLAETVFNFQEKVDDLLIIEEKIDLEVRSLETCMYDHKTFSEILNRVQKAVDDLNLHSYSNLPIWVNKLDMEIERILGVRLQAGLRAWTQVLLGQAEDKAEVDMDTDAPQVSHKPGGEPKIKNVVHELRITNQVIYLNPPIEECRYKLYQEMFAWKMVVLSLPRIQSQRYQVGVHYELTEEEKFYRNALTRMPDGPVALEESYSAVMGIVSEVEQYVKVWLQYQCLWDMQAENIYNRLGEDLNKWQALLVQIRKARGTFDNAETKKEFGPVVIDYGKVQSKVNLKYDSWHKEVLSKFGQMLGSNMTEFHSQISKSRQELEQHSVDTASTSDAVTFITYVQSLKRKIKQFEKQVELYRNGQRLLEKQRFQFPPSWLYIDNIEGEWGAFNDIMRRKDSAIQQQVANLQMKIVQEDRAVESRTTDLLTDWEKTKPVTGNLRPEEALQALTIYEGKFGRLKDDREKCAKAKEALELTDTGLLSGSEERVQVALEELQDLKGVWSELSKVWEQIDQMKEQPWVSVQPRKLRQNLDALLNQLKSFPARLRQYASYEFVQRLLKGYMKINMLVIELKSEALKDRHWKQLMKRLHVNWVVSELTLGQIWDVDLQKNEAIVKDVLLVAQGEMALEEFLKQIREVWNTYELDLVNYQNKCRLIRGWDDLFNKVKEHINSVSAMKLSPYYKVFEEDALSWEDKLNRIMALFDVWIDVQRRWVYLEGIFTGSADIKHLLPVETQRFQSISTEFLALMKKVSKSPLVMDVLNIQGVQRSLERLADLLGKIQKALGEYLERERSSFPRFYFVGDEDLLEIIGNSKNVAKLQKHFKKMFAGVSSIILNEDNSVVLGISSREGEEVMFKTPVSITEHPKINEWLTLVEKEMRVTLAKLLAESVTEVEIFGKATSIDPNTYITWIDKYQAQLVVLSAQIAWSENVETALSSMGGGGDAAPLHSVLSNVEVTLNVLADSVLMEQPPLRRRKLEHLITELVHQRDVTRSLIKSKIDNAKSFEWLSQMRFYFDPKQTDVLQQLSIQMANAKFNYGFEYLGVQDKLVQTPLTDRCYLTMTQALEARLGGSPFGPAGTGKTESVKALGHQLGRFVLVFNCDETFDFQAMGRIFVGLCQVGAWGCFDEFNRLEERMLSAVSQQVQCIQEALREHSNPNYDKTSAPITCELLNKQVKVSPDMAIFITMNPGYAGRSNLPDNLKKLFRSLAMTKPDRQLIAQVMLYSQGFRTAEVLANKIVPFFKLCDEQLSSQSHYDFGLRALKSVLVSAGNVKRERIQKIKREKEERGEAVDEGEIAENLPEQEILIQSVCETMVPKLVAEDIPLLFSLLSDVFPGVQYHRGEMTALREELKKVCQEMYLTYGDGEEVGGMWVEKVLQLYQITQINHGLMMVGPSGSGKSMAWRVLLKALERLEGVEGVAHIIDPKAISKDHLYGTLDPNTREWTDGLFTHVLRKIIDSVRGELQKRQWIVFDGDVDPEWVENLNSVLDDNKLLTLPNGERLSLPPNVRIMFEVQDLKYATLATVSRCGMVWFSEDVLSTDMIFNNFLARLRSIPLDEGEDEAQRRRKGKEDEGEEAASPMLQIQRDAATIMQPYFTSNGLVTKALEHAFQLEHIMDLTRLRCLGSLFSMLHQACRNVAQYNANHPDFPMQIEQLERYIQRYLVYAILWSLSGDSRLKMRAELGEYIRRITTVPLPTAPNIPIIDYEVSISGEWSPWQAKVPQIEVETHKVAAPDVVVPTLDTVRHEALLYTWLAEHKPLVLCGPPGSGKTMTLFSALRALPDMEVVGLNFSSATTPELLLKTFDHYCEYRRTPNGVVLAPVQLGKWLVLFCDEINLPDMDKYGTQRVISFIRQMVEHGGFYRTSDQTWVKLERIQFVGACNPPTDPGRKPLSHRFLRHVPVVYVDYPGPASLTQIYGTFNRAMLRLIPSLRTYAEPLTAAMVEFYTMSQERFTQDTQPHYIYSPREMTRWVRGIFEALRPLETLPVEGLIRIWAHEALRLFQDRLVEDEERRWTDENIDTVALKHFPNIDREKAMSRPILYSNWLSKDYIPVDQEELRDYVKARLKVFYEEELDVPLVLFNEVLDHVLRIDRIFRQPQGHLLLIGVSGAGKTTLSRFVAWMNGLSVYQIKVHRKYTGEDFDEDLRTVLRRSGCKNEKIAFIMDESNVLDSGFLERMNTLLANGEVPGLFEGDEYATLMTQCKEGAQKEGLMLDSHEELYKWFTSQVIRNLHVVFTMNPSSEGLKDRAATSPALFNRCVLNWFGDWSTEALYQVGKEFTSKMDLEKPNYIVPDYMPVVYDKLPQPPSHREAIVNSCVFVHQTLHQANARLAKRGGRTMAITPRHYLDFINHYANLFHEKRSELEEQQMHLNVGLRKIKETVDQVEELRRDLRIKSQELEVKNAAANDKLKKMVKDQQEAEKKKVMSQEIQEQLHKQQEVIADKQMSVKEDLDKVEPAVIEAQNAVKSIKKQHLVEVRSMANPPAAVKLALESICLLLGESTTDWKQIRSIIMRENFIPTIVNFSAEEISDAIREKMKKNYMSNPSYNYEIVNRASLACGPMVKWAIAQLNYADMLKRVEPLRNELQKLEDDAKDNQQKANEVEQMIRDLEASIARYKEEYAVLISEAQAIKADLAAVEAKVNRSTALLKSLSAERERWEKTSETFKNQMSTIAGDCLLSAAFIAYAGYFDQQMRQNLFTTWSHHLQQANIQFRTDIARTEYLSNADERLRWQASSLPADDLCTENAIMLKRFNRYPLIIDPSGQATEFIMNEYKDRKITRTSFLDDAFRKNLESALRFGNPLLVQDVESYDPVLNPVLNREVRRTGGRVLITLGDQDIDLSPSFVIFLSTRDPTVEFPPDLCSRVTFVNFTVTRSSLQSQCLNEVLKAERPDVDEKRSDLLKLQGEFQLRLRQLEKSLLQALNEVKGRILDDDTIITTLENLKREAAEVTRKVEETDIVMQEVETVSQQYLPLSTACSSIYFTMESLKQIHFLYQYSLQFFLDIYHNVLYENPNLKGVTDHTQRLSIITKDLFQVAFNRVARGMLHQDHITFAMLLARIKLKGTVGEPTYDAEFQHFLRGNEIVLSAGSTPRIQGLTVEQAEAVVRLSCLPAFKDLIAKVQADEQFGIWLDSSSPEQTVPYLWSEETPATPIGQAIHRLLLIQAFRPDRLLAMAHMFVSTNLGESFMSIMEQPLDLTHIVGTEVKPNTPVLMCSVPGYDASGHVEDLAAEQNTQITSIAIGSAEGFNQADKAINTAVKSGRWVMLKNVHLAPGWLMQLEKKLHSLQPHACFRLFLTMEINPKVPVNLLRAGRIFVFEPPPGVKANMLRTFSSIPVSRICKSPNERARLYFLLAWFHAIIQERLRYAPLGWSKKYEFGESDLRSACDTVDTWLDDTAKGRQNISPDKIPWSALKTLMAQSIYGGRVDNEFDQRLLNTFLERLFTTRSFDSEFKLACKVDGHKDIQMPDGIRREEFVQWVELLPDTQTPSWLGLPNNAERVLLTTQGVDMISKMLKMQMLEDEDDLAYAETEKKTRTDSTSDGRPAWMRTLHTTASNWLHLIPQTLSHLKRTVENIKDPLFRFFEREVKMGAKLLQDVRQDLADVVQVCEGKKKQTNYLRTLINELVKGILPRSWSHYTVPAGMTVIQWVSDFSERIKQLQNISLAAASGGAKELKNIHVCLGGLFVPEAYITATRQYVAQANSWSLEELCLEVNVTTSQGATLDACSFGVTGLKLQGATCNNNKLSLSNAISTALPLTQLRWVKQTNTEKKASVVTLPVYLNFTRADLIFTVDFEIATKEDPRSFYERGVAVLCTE

percent of dynein runs that comigrated with Lis1: 16.8%
Substance: HaloTag-Lis1 (human full-length Lis1, PAFAH1B1) (from UniProt P43034 1-410) (natural protein)
